Drawing on patent US20150176059, this text covers binding and activity for four sequences.

Read-outs that look alike come from different tables or passages of the source.

Series [1] deals with Z05-D DNA polymerase (Thermus sp. Z05?). The note with it: SYBR Green melting, 50 mM Tris pH 8.0, 100 mM KCl, 2.5 mM MgCl2.
Series [2] relates to Z05 DNA polymerase (Thermus sp. Z05?). The series can be described thus: inhibition. Particulars: KRAS PCR, 60 C, 10x excess, no UNG, 20 nM Z05, 3 mM MgCl2.

On to “CGAUCAUCTCAGAACATTCTTAGCGTTTTGTTCTTGTGTAUGAUCG [U1]”, for which the binding in series [1] (dU replacing dT at positions shown as u (low dU content), aptamer Tm 58.4 C with 20 nM Z05-D vs 56.8 C without) was 1.6 °C. The sequence also registered an activity in series [2] (dU replacing dT at positions shown as u (low dU content), no-target Ct 31.7 vs 25.7 without aptamer) of 31.7 Ct.
In series [1] (aptamer Tm 60.7 C with 20 nM Z05-D vs 59.0 C without), “CGATCATCTCAGAACATTCTTAGCGTTTTGTTCTTGTGTATGATCG [U0 (NTQ21-46A)]” had a binding of 1.7 °C. For the same sequence, the activity in series [2] (no-target Ct 32.0 vs 25.7 without aptamer) was determined as 32 Ct.
On to “CGAUCAUCTCAGAACATTCTTAGCGTTTUGUUCUUGTGTAUGAUCG [U3]”, for which the binding in series [1] (dU replacing dT at positions shown as u (high dU content), aptamer Tm 57.6 C with 20 nM Z05-D vs 55.6 C without) came out at 2 °C. For the same sequence, in series [2] (dU replacing dT at positions shown as u (high dU content), no-target Ct 30.8 vs 25.7 without aptamer), the activity stood at 30.8 Ct.
In series [1] (dU replacing dT at positions shown as u (medium dU content), aptamer Tm 59.5 C with 20 nM Z05-D vs 57.9 C without), “CGATCATCTCAGAACATTCTTAGCGTTTUGUUCUUGTGTATGATCG [U2]” yielded a binding of 1.6 °C. Also, the activity in series [2] (dU replacing dT at positions shown as u (medium dU content), no-target Ct 31.2 vs 25.7 without aptamer) amounted to 31.2 Ct.
